For this data set the following is noted: Mus musculus, 25 °C, CD, whole UniProt chain shown.
[1] abbreviates: pH 4, Urea, Sodium acetate 10 mM.

B1: Interleukin-6 wild type, P08505 (protein)
chain: MKFLSARDFHPVAFLGLMLVTTTAFPTSQVRRGDFTEDTTPNRPVYTTSQVGGLITHVLWEIVEMRKELCNGNSDCMNNDDALAENNLKLPEIQRNDGCYQTGYNQEICLLKISSGLLEYHSYLEYMKNNLKDNKKDKARVLQRDTETLIHIFNQEVKDLHKIVLPTPISNALLTDKLESQKEWLRTKTIQFILKSLEEFLKVTLRSTRQT
As to B1, under setting [1], the denaturant m value came out at 3 kcal/mol/M, the “denaturant midpoint (higher = more stable)” value (“denaturant midpoint” below) was 3.59 M and the unfolding free energy was 10.8 kcal/mol. In addition, for the setting “pH 7.4, GdnHCl, Tris-HCl 10 mM”, the denaturant m value amounted to 1 kcal/mol/M, the “denaturant midpoint” value came out at 1.9 M and the unfolding free energy is 1.9 kcal/mol. Further, where the note is “pH 7.4, Urea, Tris-HCl 10 mM”, the denaturant m value came out at 1.1 kcal/mol/M, the “denaturant midpoint” value was 5.2 M and the unfolding free energy amounted to 5.7 kcal/mol.
